Results on one substance are retold here after patent publication US20080003199A1.

The target of this experiment is recombinant mature rat IL-33 with N-terminal His-tag (rat) (UniProt Q66H70). Nature of the experiment: cell-based or functional assay.
Sequence of recombinant mature rat IL-33 with N-terminal His-tag (rat) (Q66H70 109-264): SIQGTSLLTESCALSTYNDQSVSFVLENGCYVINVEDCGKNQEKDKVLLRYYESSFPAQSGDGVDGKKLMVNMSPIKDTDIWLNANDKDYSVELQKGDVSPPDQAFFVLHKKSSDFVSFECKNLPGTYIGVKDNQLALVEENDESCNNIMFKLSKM

In the case of “mouse soluble ST2 (R&D) (from UniProt P14719 27-337)”, the NF-κB promoter activity (luciferase reporter, % increase) in neonatal rat cardiomyocytes is 42%.
